Experimental findings from publication PMC12366701 are described below.

Assay [1] deals with porcine double-stabilized microtubules (dsMTs) (porcine (endogenous in pig brain)) (UniProt P02550). Kind of assay: TIRF microscopy binding assay; porcine dsMTs attached to coverslips via an anti-β-tubulin antibody; 100 nM Janelia Fluor 549-labelled TTLL11 variants in 40 mM tris-HCl pH 7.0, 1 mM TCEP, 1 mM MgCl2, 5% glycerol, casein, 10 μM paclitaxel; 22°C; intensity per μm of MT normalized to the control.
Sequence of UniProt P02550 (P02550 whole entry, chain 1 of 2): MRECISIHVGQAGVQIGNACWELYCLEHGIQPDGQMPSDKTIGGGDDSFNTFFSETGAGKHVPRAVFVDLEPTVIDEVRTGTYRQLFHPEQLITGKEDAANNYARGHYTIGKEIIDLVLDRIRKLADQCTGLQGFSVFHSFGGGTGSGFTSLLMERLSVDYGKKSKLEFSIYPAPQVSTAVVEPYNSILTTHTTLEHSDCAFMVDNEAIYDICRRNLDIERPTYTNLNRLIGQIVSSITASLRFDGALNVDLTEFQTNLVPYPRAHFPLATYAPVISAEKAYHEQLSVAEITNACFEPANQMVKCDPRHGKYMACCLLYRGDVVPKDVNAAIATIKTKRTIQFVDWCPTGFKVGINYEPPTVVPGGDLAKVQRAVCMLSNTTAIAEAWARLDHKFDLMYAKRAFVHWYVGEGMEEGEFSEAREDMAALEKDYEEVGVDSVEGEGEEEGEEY
Sequence of UniProt P02550 (P02554 whole entry, chain 2 of 2, further chain): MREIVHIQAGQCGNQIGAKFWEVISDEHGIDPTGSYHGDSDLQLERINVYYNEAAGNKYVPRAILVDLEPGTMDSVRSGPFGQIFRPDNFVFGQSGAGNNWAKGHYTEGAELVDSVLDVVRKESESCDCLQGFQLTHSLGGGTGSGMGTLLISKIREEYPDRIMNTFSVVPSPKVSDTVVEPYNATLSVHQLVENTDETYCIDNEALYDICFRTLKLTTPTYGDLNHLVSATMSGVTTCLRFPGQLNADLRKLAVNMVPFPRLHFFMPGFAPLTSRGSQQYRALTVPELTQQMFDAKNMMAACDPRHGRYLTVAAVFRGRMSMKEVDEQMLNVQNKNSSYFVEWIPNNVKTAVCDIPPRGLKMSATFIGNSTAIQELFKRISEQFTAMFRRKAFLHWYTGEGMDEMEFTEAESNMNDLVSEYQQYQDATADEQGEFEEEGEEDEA

In assay [2] the target is AspN-treated porcine dsMTs (β-tubulin C-tail removed) (porcine (endogenous in pig brain)) (UniProt P02550). The description is as above.

“hTTLL11 R601E mutant (from UniProt Q8NHH1 1-710) (enzyme)” displayed a percent reduction of the fluorescence signal intensity in assay [1] of 60%. Still for that read-out and setting: the value for “hTTLL11 I594W mutant (from UniProt Q8NHH1 1-710) (enzyme)” was 80%.

B1: human TTLL11 (hTTLL11), full-length (enzyme)
chain: MRRGSSESELAARWEAEAVAAAKAAAKAEAEATAETVAEQVRVDAGAAGEPECKAGEEQPKVLAPAPAQPSAAEEGNTQVLQRPPPTLPPSKPKPVQGLCPHGKPRDKGRSCKRSSGHGSGENGSQRPVTVDSSKARTSLDALKISIRQLKWKEFPFGRRLPCDIYWHGVSFHDNDIFSGQVNKFPGMTEMVRKITLSRAVRTMQNLFPEEYNFYPRSWILPDEFQLFVAQVQMVKDDDPSWKPTFIVKPDGGCQGDGIYLIKDPSDIRLAGTLQSRPAVVQEYICKPLLIDKLKFDIRLYVLLKSLDPLEIYIAKDGLSRFCTEPYQEPTPKNLHRIFMHLTNYSLNIHSGNFIHSDSASTGSKRTFSSILCRLSSKGVDIKKVWSDIISVVIKTVIALTPELKVFYQSDIPTGRPGPTCFQILGFDILLMKNLKPILLEVNANPSMRIEHEHELSPGVFENVPSLVDEEVKVAVIRDTLRLMDPLKKKRENQSQQLEKPFAGKEDALDGELTSAPDCNANPEAHLPSICLKQVFPKYAKQFNYLRLVDRMANLFIRFLGIKGTMKLGPTGFRTFIRSCKLSSSSLSMAAVDILYIDITRRWNSMTLDQRDSGMCLQAFVEAFFFLAQRKFKMLPLHEQVASLIDLCEYHLSLLDEKRLVCGRGVPSGGRPPHRGPPQEPSPSAQPAGDNPPPRTSCANKLSHPRHTLS
modifications: Janelia Fluor 549-HALO probe on the HALO tag (TIRF assay)
In assay [2], B1 came in with a percent lower fluorescence signal than on intact MTs of 50%.
